Source: CN109384845A (SHANGHAI INST BIOLOGICAL SCIENCES CAS, dated 2019)

Target: T1, 人CD40 (BJAB细胞) (human, UniProt P25942 21-277)
T1 construct: whole, on cells; On the surface of BJAB cells in FACS and in the functional assays; also called 细胞膜表面的CD40; 人CD40分子
Assay: Western blot, hybridoma supernatant as primary antibody, HRP anti-mouse IgG secondary

T1 sequence (P25942 21-277): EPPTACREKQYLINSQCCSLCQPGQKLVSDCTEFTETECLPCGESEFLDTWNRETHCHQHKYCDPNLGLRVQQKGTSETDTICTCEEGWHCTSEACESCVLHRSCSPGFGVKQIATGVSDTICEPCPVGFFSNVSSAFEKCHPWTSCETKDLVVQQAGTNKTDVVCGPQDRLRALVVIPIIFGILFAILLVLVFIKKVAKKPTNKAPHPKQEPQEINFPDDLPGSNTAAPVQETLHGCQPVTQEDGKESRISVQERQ

binding result: binds
B1: CD40单克隆抗体 No.3 (antibody, V domains shown)
VH: EVQLQQSGPELVKPGASVKIVCKASGYTFTDYNMDWVKQSHGKSLEWIGDINPKNGGIIYNQKFKGKATLTVDKSSSTAYMELRSLTSEDTAVYYCVRRFAYWGQGTTVTVSS
VL: DIELTQSPTTMAASPGEKITITCSASSSISSNYLHWYQQKPGFSPKLLIYRTSNLAYGVPARFSGSGSGTSYSLTIGTMEAEDVATYYCQQGSSIPYTFGGGTKLEIKR
notes: Mouse hybridoma antibody, tested as culture supernatant
